# Test results as given in US20250043302A1, “MUTATED HYDROXYPHENYLPYRUVATE DIOXYGENASE POLYPEPTIDE, AND CODING GENE AND USE THEREOF” (BEIJING DABEINONG BIOTECHNOLOGY CO., LTD., priority 2021, published 2025).
# Tests used:
# Type in all cases: in vivo
# [1] = test system: Arabidopsis thaliana T1 plants; assay: Topramezone tolerance of transgenic Arabidopsis thaliana T1 plants (spray, bleached leaf area grade, damage score); settings: 7 DAT, Table 4; for Classification and statistics of the grade of pesticide damage: Grade 0 / Classification and statistics of the grade of pesticide damage: Grade 1 / Classification and statistics of the grade of pesticide damage: Grade 2 / Classification and statistics of the grade of pesticide damage: Grade 3: number of plants; for Scores: pesticide damage score 0-100
# Outline: (§1)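 Damage graded 0–3 from the proportion of bleached leaf area 7 days after spraying. Plants were glufosinate-selected T1 lines, 18 days after sowing, plus vector and wild-type controls. Rates: mesotrione 52.5–420, isoxaflutole 35–280, topramezone 25–200 g ai/ha, with water (0×).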
# [2] = test system: Arabidopsis thaliana T1 plants; assay: Isoxaflutole tolerance of transgenic Arabidopsis thaliana T1 plants (spray, bleached leaf area grade, damage score); parameters: Scores (pesticide damage): scale not given here; settings: spray, Arabidopsis thaliana T1 plants; for Classification and statistics of the grade of pesticide damage: Grade 0 (number of plants) / Classification and statistics of the grade of pesticide damage: Grade 1 (number of plants) / Classification and statistics of the grade of pesticide damage: Grade 2 (number of plants) / Classification and statistics of the grade of pesticide damage: Grade 3 (number of plants): 16 plants
# Outline: as §1
# [3] = test system: Arabidopsis thaliana T1 plants; assay: Mesotrione tolerance of transgenic Arabidopsis thaliana T1 plants (spray, bleached leaf area grade, damage score); parameters: Scores: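 damage score 0-100 computed as Σ(N×S)/(T×M)×100 over grades 0-3 with higher meaning more damage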; settings: Arabidopsis thaliana T1 plants; for Grade 0 (classification and statistics of the grade of pesticide damage; number of plants) / Grade 1 (classification and statistics of the grade of pesticide damage; number of plants) / Grade 2 (classification and statistics of the grade of pesticide damage; number of plants) / Grade 3 (classification and statistics of the grade of pesticide damage; number of plants): 16 plants
# Outline: as §1
# [4] = isoxaflutole 35 g ai/ha (0.5x field concentration)
# [5] = isoxaflutole 70 g ai/ha (1x field concentration)
molecule,measurement,setting,value
"BnHPPD-02: nucleotide sequence encoding wild-type Brassica napus HPPD; vector DBN11742 (nucleic acid, BnHPPD-02 Nucleotide Sequence, vector DBN11742) DNA: ATGGGACATGAAAACGCGGCAGTGTGTGAAACTCAACAACATGATGACGCCGCCTCCCCGGGGTTTAAACTTGTCGGGTTCTCAAAATTTGTTAGGAAGAATCCAAAGTCTGACAAGTTCAAGGTGAAACGCTTCCACCACATCGAGTTCTGGTGCGGGGATGCAACAAATGTTTCACGCCGCTTTTCATGGGGACTAGGAATGAGGTTTAGCGCAAAGAGTGATCTCTCCACTGGTAATATGGTTCATGCGAGCTACTTGCTCACATCTGGAGACCTGAGATTCCTCTTCACCGCACCATATTCTCCCTCCCTGTCAGCTGGTGAAGCTCAGCCTTCAGCAACTGCAAGTATCCCTTCGTTTGATCATGCATCGTGCAGGTCTTTCTTCAGTTCACATGGACTCGGCGTCAGAGCAGTAGCGATCGAAGTAGAGGATGCTGAATCAGCTTTCTCCATATCTGTCGCCAACGGCGCGGTGCCTTCTTCTCCACCAAACGTCTTGAATGGTGCTGTTACCATTGCTGAGGTGAAGCTGTACGGAGATGTTGTTTTAAGATATGTTTCATATTACAATGGGACCGTTTCTTTTCTTCCCGGCTTTGAATCTGTTGATGATACTTCTTCCTTCCCTCTTGATTATGGGATCAGGCGGCTGGACCACGCCGTCGGCAACGTGCCGGAGTTAGGTCCTGCTTTGACATATCTTGCCGGCTTCACTGGATTCCATCAATTTGCAGAGTTTACGGCTGACGACGTGGGGACCGCGGAGAGTGGGCTGAACTCAGCAGTCTTGGCCAACAATGATGAAATGGTGCTCCTCCCCATCAATGAACCTGTGCATGGAACAAAGAGAAAGTCGCAGATTCAAACATTTTTAGAGCACAATGAGGGAGCTGGGCTACAGCACCTCGCATTGATGTCAGAAGATATTTTTCGAACGTTGAGGGAGATGCGGAAACGATCTGGTGTAGGCGGCTTTGACTTCATGCCATCCCCTCCGCCAACCTACTACAAGAACCTGAAGAAGAGGGTTGGAGACGTCCTTTCCGAGGAGCAAATTGAAGAATGTGAGGAGCTTGGAATTCTGGTGGACAGAGATGATCAAGGAACACTACTTCAGATCTTCACAAAACCATTGGGCGACAGGCCAACGATATTCATTGAGATCATTCAGCGCGTTGGATGCATGAAGCGTGATGAGGAAGGGAAGGTCTACCAGAGTGGCGGTTGTGGTGGATTTGGAAAAGGAAATTTTTCTGAGCTGTTCAAAAGCATAGAAGAGTATGAGAAAACATTGGAGGCCAAGCAGCTTGTTGGTTGA",Classification and statistics of the grade of pesticide damage: Grade 0,[1]; topramezone 25 g ai/ha (1×),0
same,Classification and statistics of the grade of pesticide damage: Grade 1,[1]; topramezone 25 g ai/ha (1×),0
same,Classification and statistics of the grade of pesticide damage: Grade 2,[1]; topramezone 25 g ai/ha (1×),0
same,Classification and statistics of the grade of pesticide damage: Grade 3,[1]; topramezone 25 g ai/ha (1×),16
same,Classification and statistics of the grade of pesticide damage: Grade 0,[1]; topramezone 100 g ai/ha (4×),0
same,Classification and statistics of the grade of pesticide damage: Grade 1,[1]; topramezone 100 g ai/ha (4×),0
same,Classification and statistics of the grade of pesticide damage: Grade 2,[1]; topramezone 100 g ai/ha (4×),0
same,Classification and statistics of the grade of pesticide damage: Grade 3,[1]; topramezone 100 g ai/ha (4×),16
same,Scores,[1]; topramezone 25 g ai/ha (1×),100
same,Scores,[1]; topramezone 100 g ai/ha (4×),100
same,Resistance evaluation,[1]; topramezone 25 g ai/ha (1×),non-resistant (non-resistant plants (scores 68-100))
same,Resistance evaluation,[1]; topramezone 100 g ai/ha (4×),non-resistant (non-resistant plants (scores 68-100))
same,Resistance evaluation,[2]; [4],Non-resistant
same,Scores (pesticide damage),[2]; [4],100
same,Classification and statistics of the grade of pesticide damage: Grade 0 (number of plants),[2]; [4],0
same,Classification and statistics of the grade of pesticide damage: Grade 1 (number of plants),[2]; [4],0
same,Classification and statistics of the grade of pesticide damage: Grade 2 (number of plants),[2]; [4],0
same,Classification and statistics of the grade of pesticide damage: Grade 3 (number of plants),[2]; [4],16
same,Resistance evaluation,[2]; [5],Non-resistant
same,Scores (pesticide damage),[2]; [5],100
same,Classification and statistics of the grade of pesticide damage: Grade 0 (number of plants),[2]; [5],0
same,Classification and statistics of the grade of pesticide damage: Grade 1 (number of plants),[2]; [5],0
same,Classification and statistics of the grade of pesticide damage: Grade 2 (number of plants),[2]; [5],0
same,Classification and statistics of the grade of pesticide damage: Grade 3 (number of plants),[2]; [5],16
same,Resistance evaluation,[3]; mesotrione 52.5 g ai/ha,Non-resistant
same,Scores,[3]; mesotrione 52.5 g ai/ha,100
same,Grade 0 (classification and statistics of the grade of pesticide damage; number of plants),[3]; mesotrione 52.5 g ai/ha,0
same,Grade 1 (classification and statistics of the grade of pesticide damage; number of plants),[3]; mesotrione 52.5 g ai/ha,0
same,Grade 2 (classification and statistics of the grade of pesticide damage; number of plants),[3]; mesotrione 52.5 g ai/ha,0
same,Grade 3 (classification and statistics of the grade of pesticide damage; number of plants),[3]; mesotrione 52.5 g ai/ha,16
same,Resistance evaluation,[3]; mesotrione 105 g ai/ha,Non-resistant
same,Scores,[3]; mesotrione 105 g ai/ha,100
same,Grade 0 (classification and statistics of the grade of pesticide damage; number of plants),[3]; mesotrione 105 g ai/ha,0
same,Grade 1 (classification and statistics of the grade of pesticide damage; number of plants),[3]; mesotrione 105 g ai/ha,0
same,Grade 2 (classification and statistics of the grade of pesticide damage; number of plants),[3]; mesotrione 105 g ai/ha,0
same,Grade 3 (classification and statistics of the grade of pesticide damage; number of plants),[3]; mesotrione 105 g ai/ha,16
